From patent US20150344570A1 (published 2015) come the findings set out here.

B1: GpH7-B3 variant K334_13S/GpL16-k0 (antibody, human IgG1, kappa)
heavy: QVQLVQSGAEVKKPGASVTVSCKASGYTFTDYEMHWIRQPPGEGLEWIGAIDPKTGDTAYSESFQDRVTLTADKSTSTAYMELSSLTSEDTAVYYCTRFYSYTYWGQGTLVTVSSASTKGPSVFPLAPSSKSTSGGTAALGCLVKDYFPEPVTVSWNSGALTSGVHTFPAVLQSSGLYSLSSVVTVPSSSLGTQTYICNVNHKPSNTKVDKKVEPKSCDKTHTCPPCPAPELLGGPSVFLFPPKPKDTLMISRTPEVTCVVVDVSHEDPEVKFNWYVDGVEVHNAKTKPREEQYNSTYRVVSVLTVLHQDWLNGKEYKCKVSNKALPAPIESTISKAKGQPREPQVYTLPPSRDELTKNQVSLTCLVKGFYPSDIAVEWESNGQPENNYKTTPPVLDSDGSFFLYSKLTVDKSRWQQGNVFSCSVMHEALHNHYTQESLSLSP
light: DIVMTQSPLSLPVTPGEPASISCQASESLVHSNRNTYLHWYLQKPGQSPQLLIYKVSNRFSGVPDRFSGSGSGTDFTLKISRVEAEDVGVYYCSQNTHVPPTFGQGTKVEIERTVAAPSVFIFPPSDEQLKSGTASVVCLLNNFYPREAKVQWKVDNALQSGNSQESVTEQDSKDSTYSLSSTLTLSKADYEKHKVYACEVTHQGLSSPVTKSFNRGEC
notes: also called Ho Ab K334_13S
B2: GpH7-B3 variant S337_20W/GpL16-k0 (antibody, human IgG1, kappa)
heavy: not shown
light: DIVMTQSPLSLPVTPGEPASISCQASESLVHSNRNTYLHWYLQKPGQSPQLLIYKVSNRFSGVPDRFSGSGSGTDFTLKISRVEAEDVGVYYCSQNTHVPPTFGQGTKVEIERTVAAPSVFIFPPSDEQLKSGTASVVCLLNNFYPREAKVQWKVDNALQSGNSQESVTEQDSKDSTYSLSSTLTLSKADYEKHKVYACEVTHQGLSSPVTKSFNRGEC
notes: also called Ho Ab S337_20W
B3: GpH7-B3 variant L234_04F/GpL16-k0 (antibody, human IgG1, kappa)
heavy: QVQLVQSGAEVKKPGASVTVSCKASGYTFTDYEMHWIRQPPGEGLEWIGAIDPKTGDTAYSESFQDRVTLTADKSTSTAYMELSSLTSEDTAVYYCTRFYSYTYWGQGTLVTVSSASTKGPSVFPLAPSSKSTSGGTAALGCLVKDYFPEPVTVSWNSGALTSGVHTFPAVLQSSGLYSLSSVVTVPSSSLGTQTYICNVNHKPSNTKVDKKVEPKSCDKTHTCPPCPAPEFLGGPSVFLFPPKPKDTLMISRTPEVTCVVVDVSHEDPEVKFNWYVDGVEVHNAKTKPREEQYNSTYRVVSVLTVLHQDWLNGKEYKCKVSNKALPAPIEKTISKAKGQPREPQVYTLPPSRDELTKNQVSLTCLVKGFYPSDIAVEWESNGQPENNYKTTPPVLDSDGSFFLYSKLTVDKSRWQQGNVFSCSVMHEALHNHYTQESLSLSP
light: DIVMTQSPLSLPVTPGEPASISCQASESLVHSNRNTYLHWYLQKPGQSPQLLIYKVSNRFSGVPDRFSGSGSGTDFTLKISRVEAEDVGVYYCSQNTHVPPTFGQGTKVEIERTVAAPSVFIFPPSDEQLKSGTASVVCLLNNFYPREAKVQWKVDNALQSGNSQESVTEQDSKDSTYSLSSTLTLSKADYEKHKVYACEVTHQGLSSPVTKSFNRGEC
notes: also called Ho Ab L234_04F
B4: GpH7-B3 variant T335_20W/GpL16-k0 (antibody, human IgG1, kappa)
heavy: not shown
light: DIVMTQSPLSLPVTPGEPASISCQASESLVHSNRNTYLHWYLQKPGQSPQLLIYKVSNRFSGVPDRFSGSGSGTDFTLKISRVEAEDVGVYYCSQNTHVPPTFGQGTKVEIERTVAAPSVFIFPPSDEQLKSGTASVVCLLNNFYPREAKVQWKVDNALQSGNSQESVTEQDSKDSTYSLSSTLTLSKADYEKHKVYACEVTHQGLSSPVTKSFNRGEC
notes: also called Ho Ab T335_20W
B5: GpH7-B3 variant Y296_04F/GpL16-k0 (antibody, human IgG1, kappa)
heavy: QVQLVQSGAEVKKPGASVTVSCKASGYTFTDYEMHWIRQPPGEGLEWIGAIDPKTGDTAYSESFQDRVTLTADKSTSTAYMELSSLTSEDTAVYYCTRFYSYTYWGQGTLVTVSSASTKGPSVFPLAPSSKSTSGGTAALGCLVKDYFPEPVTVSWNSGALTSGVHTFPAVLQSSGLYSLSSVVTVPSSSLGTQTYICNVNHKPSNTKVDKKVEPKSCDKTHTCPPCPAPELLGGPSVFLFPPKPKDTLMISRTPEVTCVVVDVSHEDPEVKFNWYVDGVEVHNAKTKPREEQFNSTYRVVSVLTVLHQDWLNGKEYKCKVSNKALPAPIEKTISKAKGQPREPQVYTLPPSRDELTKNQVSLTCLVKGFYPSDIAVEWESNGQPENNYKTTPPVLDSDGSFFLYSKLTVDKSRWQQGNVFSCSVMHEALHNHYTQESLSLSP
light: DIVMTQSPLSLPVTPGEPASISCQASESLVHSNRNTYLHWYLQKPGQSPQLLIYKVSNRFSGVPDRFSGSGSGTDFTLKISRVEAEDVGVYYCSQNTHVPPTFGQGTKVEIERTVAAPSVFIFPPSDEQLKSGTASVVCLLNNFYPREAKVQWKVDNALQSGNSQESVTEQDSKDSTYSLSSTLTLSKADYEKHKVYACEVTHQGLSSPVTKSFNRGEC
notes: also called Ho Ab Y296_04F
B6: GpH7-B3 variant K334_19Q/GpL16-k0 (antibody, human IgG1, kappa)
heavy: not shown
light: DIVMTQSPLSLPVTPGEPASISCQASESLVHSNRNTYLHWYLQKPGQSPQLLIYKVSNRFSGVPDRFSGSGSGTDFTLKISRVEAEDVGVYYCSQNTHVPPTFGQGTKVEIERTVAAPSVFIFPPSDEQLKSGTASVVCLLNNFYPREAKVQWKVDNALQSGNSQESVTEQDSKDSTYSLSSTLTLSKADYEKHKVYACEVTHQGLSSPVTKSFNRGEC
notes: also called Ho Ab K334_19Q
B7: GpH7-B3 variant S337_08L/GpL16-k0 (antibody, human IgG1, kappa)
heavy: not shown
light: DIVMTQSPLSLPVTPGEPASISCQASESLVHSNRNTYLHWYLQKPGQSPQLLIYKVSNRFSGVPDRFSGSGSGTDFTLKISRVEAEDVGVYYCSQNTHVPPTFGQGTKVEIERTVAAPSVFIFPPSDEQLKSGTASVVCLLNNFYPREAKVQWKVDNALQSGNSQESVTEQDSKDSTYSLSSTLTLSKADYEKHKVYACEVTHQGLSSPVTKSFNRGEC
notes: also called Ho Ab S337_08L
B8: GpH7-B3 variant S239_08L/GpL16-k0 (antibody, human IgG1, kappa)
heavy: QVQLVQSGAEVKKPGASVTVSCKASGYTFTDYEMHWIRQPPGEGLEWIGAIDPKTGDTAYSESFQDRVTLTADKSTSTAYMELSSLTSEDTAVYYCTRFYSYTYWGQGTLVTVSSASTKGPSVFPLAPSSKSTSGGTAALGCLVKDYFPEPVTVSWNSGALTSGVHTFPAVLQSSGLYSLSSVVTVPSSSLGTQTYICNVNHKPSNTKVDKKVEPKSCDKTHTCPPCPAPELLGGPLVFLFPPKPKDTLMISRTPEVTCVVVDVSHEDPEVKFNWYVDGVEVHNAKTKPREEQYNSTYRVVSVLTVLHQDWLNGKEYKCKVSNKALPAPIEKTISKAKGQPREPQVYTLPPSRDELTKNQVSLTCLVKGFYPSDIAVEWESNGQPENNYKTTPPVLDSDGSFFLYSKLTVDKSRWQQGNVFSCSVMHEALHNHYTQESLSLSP
light: DIVMTQSPLSLPVTPGEPASISCQASESLVHSNRNTYLHWYLQKPGQSPQLLIYKVSNRFSGVPDRFSGSGSGTDFTLKISRVEAEDVGVYYCSQNTHVPPTFGQGTKVEIERTVAAPSVFIFPPSDEQLKSGTASVVCLLNNFYPREAKVQWKVDNALQSGNSQESVTEQDSKDSTYSLSSTLTLSKADYEKHKVYACEVTHQGLSSPVTKSFNRGEC
notes: also called Ho Ab S239_08L
B9: GpH7-B3 variant V266_08L/GpL16-k0 (antibody, human IgG1, kappa)
heavy: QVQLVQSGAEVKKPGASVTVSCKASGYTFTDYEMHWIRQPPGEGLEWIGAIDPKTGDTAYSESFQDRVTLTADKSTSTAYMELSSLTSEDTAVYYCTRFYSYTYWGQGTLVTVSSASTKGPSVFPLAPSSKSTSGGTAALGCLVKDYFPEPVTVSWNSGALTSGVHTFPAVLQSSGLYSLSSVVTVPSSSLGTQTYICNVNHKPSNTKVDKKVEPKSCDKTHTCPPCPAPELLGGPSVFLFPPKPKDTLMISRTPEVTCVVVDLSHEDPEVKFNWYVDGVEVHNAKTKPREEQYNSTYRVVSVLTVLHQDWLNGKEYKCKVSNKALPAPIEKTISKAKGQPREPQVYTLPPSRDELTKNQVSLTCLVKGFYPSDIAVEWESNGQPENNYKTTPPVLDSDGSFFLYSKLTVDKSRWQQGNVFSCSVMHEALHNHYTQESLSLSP
light: DIVMTQSPLSLPVTPGEPASISCQASESLVHSNRNTYLHWYLQKPGQSPQLLIYKVSNRFSGVPDRFSGSGSGTDFTLKISRVEAEDVGVYYCSQNTHVPPTFGQGTKVEIERTVAAPSVFIFPPSDEQLKSGTASVVCLLNNFYPREAKVQWKVDNALQSGNSQESVTEQDSKDSTYSLSSTLTLSKADYEKHKVYACEVTHQGLSSPVTKSFNRGEC
notes: also called Ho Ab V266_08L
B10: GpH7-B3 variant L234_20W/GpL16-k0 (antibody, human IgG1, kappa)
heavy: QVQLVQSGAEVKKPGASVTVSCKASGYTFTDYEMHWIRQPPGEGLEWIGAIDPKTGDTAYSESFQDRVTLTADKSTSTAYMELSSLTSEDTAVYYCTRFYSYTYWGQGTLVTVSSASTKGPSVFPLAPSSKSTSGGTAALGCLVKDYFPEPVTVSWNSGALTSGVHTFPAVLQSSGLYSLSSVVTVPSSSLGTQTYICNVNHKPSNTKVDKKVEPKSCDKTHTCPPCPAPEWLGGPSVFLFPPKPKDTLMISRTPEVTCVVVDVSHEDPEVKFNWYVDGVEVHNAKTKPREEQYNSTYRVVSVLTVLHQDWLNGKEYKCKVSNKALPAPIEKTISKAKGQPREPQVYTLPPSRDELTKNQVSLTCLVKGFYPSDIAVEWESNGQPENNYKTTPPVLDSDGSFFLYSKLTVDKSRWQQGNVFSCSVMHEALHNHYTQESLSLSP
light: DIVMTQSPLSLPVTPGEPASISCQASESLVHSNRNTYLHWYLQKPGQSPQLLIYKVSNRFSGVPDRFSGSGSGTDFTLKISRVEAEDVGVYYCSQNTHVPPTFGQGTKVEIERTVAAPSVFIFPPSDEQLKSGTASVVCLLNNFYPREAKVQWKVDNALQSGNSQESVTEQDSKDSTYSLSSTLTLSKADYEKHKVYACEVTHQGLSSPVTKSFNRGEC
notes: also called Ho Ab L234_20W
B11: GpH7-B3 variant S239_10E/GpL16-k0 (antibody, human IgG1, kappa)
heavy: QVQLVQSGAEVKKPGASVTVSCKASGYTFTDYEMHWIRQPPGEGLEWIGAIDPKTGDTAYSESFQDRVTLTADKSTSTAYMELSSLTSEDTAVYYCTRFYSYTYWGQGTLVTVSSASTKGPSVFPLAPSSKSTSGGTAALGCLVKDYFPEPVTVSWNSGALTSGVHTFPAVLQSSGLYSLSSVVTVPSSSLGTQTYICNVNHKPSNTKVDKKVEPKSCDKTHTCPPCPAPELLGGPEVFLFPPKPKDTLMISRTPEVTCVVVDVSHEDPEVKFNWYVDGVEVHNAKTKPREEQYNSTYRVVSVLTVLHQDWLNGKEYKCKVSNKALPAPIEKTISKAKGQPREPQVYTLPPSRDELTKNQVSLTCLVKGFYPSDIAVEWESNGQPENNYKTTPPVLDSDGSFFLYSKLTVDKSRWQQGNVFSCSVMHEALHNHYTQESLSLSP
light: DIVMTQSPLSLPVTPGEPASISCQASESLVHSNRNTYLHWYLQKPGQSPQLLIYKVSNRFSGVPDRFSGSGSGTDFTLKISRVEAEDVGVYYCSQNTHVPPTFGQGTKVEIERTVAAPSVFIFPPSDEQLKSGTASVVCLLNNFYPREAKVQWKVDNALQSGNSQESVTEQDSKDSTYSLSSTLTLSKADYEKHKVYACEVTHQGLSSPVTKSFNRGEC
notes: also called Ho Ab S239_10E
B12: GpH7-B3 variant T335_18N/GpL16-k0 (antibody, human IgG1, kappa)
heavy: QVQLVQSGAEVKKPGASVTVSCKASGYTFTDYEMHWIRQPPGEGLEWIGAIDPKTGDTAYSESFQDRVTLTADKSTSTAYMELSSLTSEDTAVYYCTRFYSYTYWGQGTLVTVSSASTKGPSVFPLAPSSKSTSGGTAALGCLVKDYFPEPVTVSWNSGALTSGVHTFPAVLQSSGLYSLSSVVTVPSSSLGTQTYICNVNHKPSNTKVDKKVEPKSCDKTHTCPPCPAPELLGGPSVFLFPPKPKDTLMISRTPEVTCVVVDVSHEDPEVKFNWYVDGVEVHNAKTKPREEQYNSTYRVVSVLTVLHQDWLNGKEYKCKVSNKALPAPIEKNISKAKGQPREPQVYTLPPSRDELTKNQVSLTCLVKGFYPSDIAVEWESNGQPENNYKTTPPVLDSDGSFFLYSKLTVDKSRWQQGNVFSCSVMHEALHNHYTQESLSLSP
light: DIVMTQSPLSLPVTPGEPASISCQASESLVHSNRNTYLHWYLQKPGQSPQLLIYKVSNRFSGVPDRFSGSGSGTDFTLKISRVEAEDVGVYYCSQNTHVPPTFGQGTKVEIERTVAAPSVFIFPPSDEQLKSGTASVVCLLNNFYPREAKVQWKVDNALQSGNSQESVTEQDSKDSTYSLSSTLTLSKADYEKHKVYACEVTHQGLSSPVTKSFNRGEC
notes: also called Ho Ab T335_18N
B13: GpH7-B3 variant S267_10E/GpL16-k0 (antibody, human IgG1, kappa)
heavy: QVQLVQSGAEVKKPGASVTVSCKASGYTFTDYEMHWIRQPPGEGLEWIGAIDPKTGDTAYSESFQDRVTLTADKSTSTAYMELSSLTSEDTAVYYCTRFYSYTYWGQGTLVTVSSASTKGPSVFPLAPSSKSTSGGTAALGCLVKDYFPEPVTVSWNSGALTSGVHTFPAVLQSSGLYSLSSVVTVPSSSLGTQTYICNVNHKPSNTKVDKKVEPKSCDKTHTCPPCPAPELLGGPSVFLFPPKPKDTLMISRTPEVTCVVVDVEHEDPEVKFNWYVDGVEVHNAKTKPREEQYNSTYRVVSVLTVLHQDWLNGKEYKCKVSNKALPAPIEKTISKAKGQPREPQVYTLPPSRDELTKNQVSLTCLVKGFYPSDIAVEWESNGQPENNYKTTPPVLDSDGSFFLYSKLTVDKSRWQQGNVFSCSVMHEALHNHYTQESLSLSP
light: DIVMTQSPLSLPVTPGEPASISCQASESLVHSNRNTYLHWYLQKPGQSPQLLIYKVSNRFSGVPDRFSGSGSGTDFTLKISRVEAEDVGVYYCSQNTHVPPTFGQGTKVEIERTVAAPSVFIFPPSDEQLKSGTASVVCLLNNFYPREAKVQWKVDNALQSGNSQESVTEQDSKDSTYSLSSTLTLSKADYEKHKVYACEVTHQGLSSPVTKSFNRGEC
notes: also called Ho Ab S267_10E
B14: GpH7-B3 variant S267_09D/GpL16-k0 (antibody, human IgG1, kappa)
heavy: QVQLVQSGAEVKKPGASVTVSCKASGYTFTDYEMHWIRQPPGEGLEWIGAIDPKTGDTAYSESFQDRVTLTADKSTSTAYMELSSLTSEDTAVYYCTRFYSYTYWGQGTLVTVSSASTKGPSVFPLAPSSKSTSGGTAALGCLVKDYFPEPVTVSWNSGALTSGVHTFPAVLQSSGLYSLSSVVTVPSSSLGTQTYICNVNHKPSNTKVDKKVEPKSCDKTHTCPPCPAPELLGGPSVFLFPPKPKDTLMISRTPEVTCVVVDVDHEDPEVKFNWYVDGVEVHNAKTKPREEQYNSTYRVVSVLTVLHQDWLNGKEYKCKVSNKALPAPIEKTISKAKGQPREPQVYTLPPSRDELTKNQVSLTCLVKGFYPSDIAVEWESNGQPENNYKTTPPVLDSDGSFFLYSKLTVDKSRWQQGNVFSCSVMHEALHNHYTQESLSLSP
light: DIVMTQSPLSLPVTPGEPASISCQASESLVHSNRNTYLHWYLQKPGQSPQLLIYKVSNRFSGVPDRFSGSGSGTDFTLKISRVEAEDVGVYYCSQNTHVPPTFGQGTKVEIERTVAAPSVFIFPPSDEQLKSGTASVVCLLNNFYPREAKVQWKVDNALQSGNSQESVTEQDSKDSTYSLSSTLTLSKADYEKHKVYACEVTHQGLSSPVTKSFNRGEC
notes: also called Ho Ab S267_09D
B15: GpH7-B3 variant L234_15Y/GpL16-k0 (antibody, human IgG1, kappa)
heavy: not shown
light: DIVMTQSPLSLPVTPGEPASISCQASESLVHSNRNTYLHWYLQKPGQSPQLLIYKVSNRFSGVPDRFSGSGSGTDFTLKISRVEAEDVGVYYCSQNTHVPPTFGQGTKVEIERTVAAPSVFIFPPSDEQLKSGTASVVCLLNNFYPREAKVQWKVDNALQSGNSQESVTEQDSKDSTYSLSSTLTLSKADYEKHKVYACEVTHQGLSSPVTKSFNRGEC
notes: also called Ho Ab L234_15Y
B16: GpH7-B3 variant S337_07I/GpL16-k0 (antibody, human IgG1, kappa)
heavy: not shown
light: DIVMTQSPLSLPVTPGEPASISCQASESLVHSNRNTYLHWYLQKPGQSPQLLIYKVSNRFSGVPDRFSGSGSGTDFTLKISRVEAEDVGVYYCSQNTHVPPTFGQGTKVEIERTVAAPSVFIFPPSDEQLKSGTASVVCLLNNFYPREAKVQWKVDNALQSGNSQESVTEQDSKDSTYSLSSTLTLSKADYEKHKVYACEVTHQGLSSPVTKSFNRGEC
notes: also called Ho Ab S337_07I

Chain of FcγRIIa H (P12318 34-217): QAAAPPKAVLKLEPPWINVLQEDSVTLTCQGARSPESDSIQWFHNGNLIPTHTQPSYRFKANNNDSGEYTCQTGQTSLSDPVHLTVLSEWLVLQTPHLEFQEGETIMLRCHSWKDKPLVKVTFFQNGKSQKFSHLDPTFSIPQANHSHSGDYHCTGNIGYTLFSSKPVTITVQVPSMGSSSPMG

The assay concerns the target FcγRIIa H (human, UniProt P12318 34-217). Put plainly: SPR Biacore, captured antibody, FcγR analyte; vs GpH7-B3/GpL16-k0 = 100.
For B1, the Ho/Con_2aH was 94.9 % of control.
As to B2, the Ho/Con_2aH was 96.6 % of control.
Consider B3, for which the Ho/Con_2aH is 54.2 % of control.
On to B4, for which the Ho/Con_2aH was 98.7 % of control.
Turning to B5, the Ho/Con_2aH was 95 % of control.
As to B6, the Ho/Con_2aH is 97.2 % of control.
In the case of B7, the Ho/Con_2aH is 93.1 % of control.
For the molecule B8, the Ho/Con_2aH was 87 % of control.
For the molecule B9, the Ho/Con_2aH is 91.5 % of control.
As for B10, the figure is 55.3 % of control.
In the case of B11, the Ho/Con_2aH is 91.4 % of control.
Regarding B12, the Ho/Con_2aH was 98 % of control.
The value for B13 was 98.5 % of control.
As for B14, the figure is 91.5 % of control; as for B15, 43.8 % of control.
Turning to B16, the Ho/Con_2aH was 94 % of control.
